Data set [1] deals with bovine factor Va (in bovine plasma), Q28107.
For data set [2], the target named is human factor Va (normal, from human plasma), P12259.
Data set [3] addresses T1, human factor VIIIa, P00451.
T1 chain: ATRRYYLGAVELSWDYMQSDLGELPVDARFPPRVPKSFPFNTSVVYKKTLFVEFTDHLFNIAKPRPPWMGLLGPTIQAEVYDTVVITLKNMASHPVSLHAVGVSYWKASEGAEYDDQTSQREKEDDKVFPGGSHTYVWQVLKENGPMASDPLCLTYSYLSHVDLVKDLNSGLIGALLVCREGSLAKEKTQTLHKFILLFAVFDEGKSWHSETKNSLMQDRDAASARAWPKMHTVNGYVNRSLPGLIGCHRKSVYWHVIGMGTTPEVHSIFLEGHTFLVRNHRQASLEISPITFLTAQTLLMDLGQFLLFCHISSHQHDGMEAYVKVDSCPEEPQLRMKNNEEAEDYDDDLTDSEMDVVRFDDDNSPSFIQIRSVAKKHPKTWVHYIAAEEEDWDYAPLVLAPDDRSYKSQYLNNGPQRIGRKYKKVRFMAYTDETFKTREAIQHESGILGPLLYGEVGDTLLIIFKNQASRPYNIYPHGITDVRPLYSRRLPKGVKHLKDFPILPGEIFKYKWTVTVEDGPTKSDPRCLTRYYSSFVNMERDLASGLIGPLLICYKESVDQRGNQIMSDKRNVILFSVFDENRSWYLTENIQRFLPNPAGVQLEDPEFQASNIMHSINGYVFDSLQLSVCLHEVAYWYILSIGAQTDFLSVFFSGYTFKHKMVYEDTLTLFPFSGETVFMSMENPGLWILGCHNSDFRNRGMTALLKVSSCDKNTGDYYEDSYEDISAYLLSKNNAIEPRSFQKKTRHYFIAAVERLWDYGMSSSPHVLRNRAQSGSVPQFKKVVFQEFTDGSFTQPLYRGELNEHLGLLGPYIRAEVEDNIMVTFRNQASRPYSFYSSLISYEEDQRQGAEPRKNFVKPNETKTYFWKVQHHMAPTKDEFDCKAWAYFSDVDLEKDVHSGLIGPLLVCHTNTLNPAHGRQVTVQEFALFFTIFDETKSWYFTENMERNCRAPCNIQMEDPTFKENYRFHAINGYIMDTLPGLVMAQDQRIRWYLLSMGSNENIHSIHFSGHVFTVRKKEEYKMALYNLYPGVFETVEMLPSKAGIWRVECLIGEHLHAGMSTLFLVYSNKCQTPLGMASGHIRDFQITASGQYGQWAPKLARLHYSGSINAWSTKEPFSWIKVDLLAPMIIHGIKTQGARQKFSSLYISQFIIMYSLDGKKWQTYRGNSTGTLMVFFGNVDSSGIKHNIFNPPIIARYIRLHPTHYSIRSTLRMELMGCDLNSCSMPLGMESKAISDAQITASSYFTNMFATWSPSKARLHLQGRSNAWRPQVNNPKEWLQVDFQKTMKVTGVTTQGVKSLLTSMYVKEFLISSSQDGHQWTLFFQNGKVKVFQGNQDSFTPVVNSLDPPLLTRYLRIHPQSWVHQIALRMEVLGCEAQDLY

Data set [4] concerns the target Q506 mutant human factor Va (FVa Leiden), P12259.

Sequence of human factor Va (normal, from human plasma), P12259 (P12259 29-2224): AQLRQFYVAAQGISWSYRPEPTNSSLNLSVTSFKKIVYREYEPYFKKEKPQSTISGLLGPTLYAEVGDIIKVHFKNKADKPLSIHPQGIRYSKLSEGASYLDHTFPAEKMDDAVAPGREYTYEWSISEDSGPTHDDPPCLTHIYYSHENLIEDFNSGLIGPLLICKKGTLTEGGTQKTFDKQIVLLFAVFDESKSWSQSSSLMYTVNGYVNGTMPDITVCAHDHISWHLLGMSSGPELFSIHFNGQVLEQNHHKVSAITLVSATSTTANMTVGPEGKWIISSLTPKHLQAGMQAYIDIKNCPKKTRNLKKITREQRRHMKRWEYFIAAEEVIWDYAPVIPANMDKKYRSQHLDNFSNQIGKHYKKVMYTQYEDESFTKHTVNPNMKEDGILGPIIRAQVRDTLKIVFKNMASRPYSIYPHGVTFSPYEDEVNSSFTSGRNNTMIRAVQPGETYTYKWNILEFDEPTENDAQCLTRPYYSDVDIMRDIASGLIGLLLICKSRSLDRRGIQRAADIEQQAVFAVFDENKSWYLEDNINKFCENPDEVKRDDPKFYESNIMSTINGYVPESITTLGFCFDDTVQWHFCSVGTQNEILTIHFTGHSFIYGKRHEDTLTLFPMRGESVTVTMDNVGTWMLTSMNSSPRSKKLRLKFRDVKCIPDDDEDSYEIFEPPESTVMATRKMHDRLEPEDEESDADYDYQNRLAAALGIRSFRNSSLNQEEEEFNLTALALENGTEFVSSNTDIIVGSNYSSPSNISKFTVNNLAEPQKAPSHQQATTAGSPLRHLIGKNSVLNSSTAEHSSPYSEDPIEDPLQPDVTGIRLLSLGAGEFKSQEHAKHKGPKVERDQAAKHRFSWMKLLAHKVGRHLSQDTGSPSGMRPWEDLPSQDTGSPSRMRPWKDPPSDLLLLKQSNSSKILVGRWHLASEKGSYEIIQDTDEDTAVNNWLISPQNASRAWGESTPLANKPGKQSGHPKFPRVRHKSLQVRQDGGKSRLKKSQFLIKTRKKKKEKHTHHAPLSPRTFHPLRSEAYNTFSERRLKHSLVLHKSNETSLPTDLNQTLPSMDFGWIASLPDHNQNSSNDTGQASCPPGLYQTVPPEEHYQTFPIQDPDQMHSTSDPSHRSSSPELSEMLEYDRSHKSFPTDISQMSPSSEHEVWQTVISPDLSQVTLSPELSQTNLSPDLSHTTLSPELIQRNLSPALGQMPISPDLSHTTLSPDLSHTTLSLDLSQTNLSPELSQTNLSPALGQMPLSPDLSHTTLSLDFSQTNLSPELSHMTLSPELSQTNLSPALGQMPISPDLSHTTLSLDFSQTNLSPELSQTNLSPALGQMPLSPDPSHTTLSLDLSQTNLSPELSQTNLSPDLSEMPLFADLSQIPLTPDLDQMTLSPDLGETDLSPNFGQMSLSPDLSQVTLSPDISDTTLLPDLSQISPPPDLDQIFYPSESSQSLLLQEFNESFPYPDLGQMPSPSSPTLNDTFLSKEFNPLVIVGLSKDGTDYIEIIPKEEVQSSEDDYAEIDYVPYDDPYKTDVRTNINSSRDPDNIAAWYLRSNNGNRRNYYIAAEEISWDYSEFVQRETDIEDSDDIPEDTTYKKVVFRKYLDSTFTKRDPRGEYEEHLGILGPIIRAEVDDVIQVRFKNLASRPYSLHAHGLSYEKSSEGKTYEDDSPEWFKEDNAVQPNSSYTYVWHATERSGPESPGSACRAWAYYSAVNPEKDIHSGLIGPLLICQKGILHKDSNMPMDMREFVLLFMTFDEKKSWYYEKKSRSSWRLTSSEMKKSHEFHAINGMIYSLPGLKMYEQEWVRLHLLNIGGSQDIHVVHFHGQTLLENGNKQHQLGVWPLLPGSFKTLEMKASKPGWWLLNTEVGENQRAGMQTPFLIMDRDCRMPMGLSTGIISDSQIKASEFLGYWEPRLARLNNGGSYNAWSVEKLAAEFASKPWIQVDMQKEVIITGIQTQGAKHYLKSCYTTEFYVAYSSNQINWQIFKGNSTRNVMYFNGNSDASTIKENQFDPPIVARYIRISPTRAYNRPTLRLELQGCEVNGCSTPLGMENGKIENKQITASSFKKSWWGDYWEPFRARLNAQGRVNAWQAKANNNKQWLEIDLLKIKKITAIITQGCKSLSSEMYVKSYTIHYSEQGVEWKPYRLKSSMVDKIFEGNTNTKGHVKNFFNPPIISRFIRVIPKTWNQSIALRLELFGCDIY
Sequence of bovine factor Va (in bovine plasma), Q28107 (Q28107 29-2211): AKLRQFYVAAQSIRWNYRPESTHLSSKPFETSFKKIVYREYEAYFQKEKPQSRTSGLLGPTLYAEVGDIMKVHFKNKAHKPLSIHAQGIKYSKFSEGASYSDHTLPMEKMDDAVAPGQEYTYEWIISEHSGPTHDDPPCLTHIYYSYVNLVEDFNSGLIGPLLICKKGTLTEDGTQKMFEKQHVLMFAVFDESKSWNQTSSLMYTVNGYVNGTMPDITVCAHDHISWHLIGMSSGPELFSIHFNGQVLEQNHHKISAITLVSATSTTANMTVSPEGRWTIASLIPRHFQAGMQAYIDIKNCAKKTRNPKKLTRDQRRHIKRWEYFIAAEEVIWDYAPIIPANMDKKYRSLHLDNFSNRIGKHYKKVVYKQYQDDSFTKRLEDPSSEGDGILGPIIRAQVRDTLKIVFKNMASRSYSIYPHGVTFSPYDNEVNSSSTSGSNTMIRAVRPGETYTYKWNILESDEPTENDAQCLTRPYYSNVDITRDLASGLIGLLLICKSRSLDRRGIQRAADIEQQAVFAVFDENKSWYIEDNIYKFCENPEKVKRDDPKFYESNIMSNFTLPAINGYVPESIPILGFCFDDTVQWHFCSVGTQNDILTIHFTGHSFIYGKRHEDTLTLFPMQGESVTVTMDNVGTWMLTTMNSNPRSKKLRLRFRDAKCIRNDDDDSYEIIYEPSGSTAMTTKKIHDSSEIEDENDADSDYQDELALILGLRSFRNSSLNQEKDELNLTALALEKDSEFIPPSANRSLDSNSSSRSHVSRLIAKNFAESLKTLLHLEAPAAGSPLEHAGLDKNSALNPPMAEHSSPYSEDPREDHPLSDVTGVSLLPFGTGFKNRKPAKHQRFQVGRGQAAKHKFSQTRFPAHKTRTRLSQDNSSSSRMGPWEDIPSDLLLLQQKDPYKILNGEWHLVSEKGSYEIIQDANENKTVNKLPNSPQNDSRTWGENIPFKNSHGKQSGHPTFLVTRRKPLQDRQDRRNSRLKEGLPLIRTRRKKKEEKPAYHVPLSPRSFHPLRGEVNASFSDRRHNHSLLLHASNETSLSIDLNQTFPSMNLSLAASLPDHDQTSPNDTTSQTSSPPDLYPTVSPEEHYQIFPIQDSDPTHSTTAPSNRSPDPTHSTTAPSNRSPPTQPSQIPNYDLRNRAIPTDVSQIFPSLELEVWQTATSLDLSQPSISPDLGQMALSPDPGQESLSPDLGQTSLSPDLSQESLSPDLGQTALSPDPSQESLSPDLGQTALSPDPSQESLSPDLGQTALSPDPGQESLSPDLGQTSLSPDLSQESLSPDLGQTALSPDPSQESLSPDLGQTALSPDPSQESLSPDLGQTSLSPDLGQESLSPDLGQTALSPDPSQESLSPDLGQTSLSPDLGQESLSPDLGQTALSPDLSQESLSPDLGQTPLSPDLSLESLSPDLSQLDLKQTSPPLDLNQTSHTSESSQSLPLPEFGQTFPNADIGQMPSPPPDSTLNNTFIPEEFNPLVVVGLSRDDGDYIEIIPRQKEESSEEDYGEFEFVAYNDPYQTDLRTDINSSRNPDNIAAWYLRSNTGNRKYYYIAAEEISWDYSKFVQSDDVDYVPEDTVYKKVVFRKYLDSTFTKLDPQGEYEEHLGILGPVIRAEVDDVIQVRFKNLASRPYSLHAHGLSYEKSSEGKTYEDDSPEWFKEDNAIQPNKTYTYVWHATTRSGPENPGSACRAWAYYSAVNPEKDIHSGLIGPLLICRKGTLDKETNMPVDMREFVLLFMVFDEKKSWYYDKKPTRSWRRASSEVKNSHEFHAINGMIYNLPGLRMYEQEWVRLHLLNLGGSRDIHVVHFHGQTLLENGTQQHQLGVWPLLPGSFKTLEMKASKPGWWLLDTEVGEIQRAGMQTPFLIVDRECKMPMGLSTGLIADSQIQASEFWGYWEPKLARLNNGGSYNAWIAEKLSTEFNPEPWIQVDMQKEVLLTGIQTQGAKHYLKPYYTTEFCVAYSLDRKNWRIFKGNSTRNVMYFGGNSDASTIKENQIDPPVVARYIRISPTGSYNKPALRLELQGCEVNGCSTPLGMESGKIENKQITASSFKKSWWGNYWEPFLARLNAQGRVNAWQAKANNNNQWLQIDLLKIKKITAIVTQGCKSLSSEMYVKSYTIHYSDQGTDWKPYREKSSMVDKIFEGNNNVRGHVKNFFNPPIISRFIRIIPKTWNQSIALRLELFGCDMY
Sequence of Q506 mutant human factor Va (FVa Leiden), P12259 (P12259 other isoform, or with tags, fused parts or gaps mutant): as the sequence (P12259 29-2224) above, with R506Q counted along it

B1: wild-type bovine activated protein C (recombinant, thrombin-activated) (protein)
chain 1: ANSFLEELRPGNVERECSEEVCEFEEAREIFQNTEDTMAFWSKYSDGDQCEDRPSGSPCDLPCCGRGKCIDGLGGFRCDCAEGWEGRFCLHEVRFSNCSAENGGCAHYCMEEEGRRHCSCAPGYRLEDDHQLCVSKVTFPCGRLGKRMEKKRKTL
chain 2: IVDGQEAGWGESPWQAVLLDSKKKLVCGAVLIHVSWVLTVAHCLDSRKKLIVRLGEYDMRRWESWEVDLDIKEVIIHPNYTKSTSDNDIALLRLAKPATLSQTIVPICLPDSGLSERKLTQVGQETVVTGWGYRDETKRNRTFVLSFIKVPVVPYNACVHAMENKISENMLCAGILGDPRDACEGDSGGPMVTFFRGTWFLVGLVSWGEGCGRLYNYGVYTKVSRYLDWIYGHIKAQEAPLESQVP
B1: the “prothrombin time (PT) assay, clotting time in bovine plasma” value in data set [1] is “wild-type bovine APC and its mutant expressed only weak anticoagulant acitivity in bovine plasma”. Moreover, the “prothrombin time (PT) assay, clotting time in human plasma” value in data set [2] is “Neither wild-type bovine APC nor bovine APC-SP had any effect in human plasma”. Further, in data set [3], the “factor VIIIa inactivation assay (FXa formation, S-2222) with human protein S and factor V” value is “the activity of factor VIIIa was inactivated by all APC's from section (2)(i) above but high concentrations were needed”; the “factor VIIIa inactivation assay with bovine protein S and bovine factor V” value is “able to inhibit factor VIIIa activity in the presence of bovine protein S and bovine factor V; worked more efficiently than wild-type human APC and human APC-SP”; the “factor VIIIa inactivation assay with human protein S and factor V, low APC concentrations” value is “At low concentrations, neither bovine wild-type APC nor bovine APC-SP could inactivate factor VIIIa”.

B2: wild-type human activated protein C (recombinant, thrombin-activated) (protein)
chain 1: ANSFLEELRHSSLERECIEEICDFEEAKEIFQNVDDTLAFWSKHVDGDQCLVLPLEHPCASLCCGHGTCIDGIGSFSCDCRSGWEGRFCQREVSFLNCSLDNGGCTHYCLEEVGWRRCSCAPGYKLGDDLLQCHPAVKFPCGRPWKRMEKKRSHL
chain 2: LIDGKMTRRGDSPWQVVLLDSKKKLACGAVLIHPSWVLTAAHCMDESKKLLVRLGEYDLRRWEKWELDLDIKEVFVHPNYSKSTTDNDIALLHLAQPATLSQTIVPICLPDSGLAERELNQAGQETLVTGWGYHSSREKEAKRNRTFVLNFIKIPVVPHNECSEVMSNMVSENMLCAGILGDRQDACEGDSGGPMVASFHGTWFLVGLVSWGEGCGLLHNYGVYTKVSRYLDWIHGHIRDKEAPQKSWAP
In the case of B2, in data set [4], the “remaining FVa activity over time (prothrombinase assay); plasma FVa, 0.4 nM APC, phospholipid vesicles” value is reported as “The addition of wt APC resulted in a slow decrease in FVa activity corresponding to cleavage at Arg306”. Besides, the “prothrombin time (PT) assay, clotting time in bovine plasma” value in data set [1] was “wild-type human APC and human APC-SP efficiently prolong clotting time in bovine plasma”. In data set [2], the “prothrombin time (PT) assay, clotting time in human plasma” value was “Both wild-type human APC and human APC-SP increased clotting times essentially in this PT assay”; the “remaining FVa activity over time (prothrombinase assay, S2238); 0.76 nM plasma FVa, 0.39 nM APC, phospholipid vesicles” value is “initial rapid loss of FVa activity that is observed during the first 5 minutes of incubation; slow decrease in FVa activity observed between 5 minutes and 25 minutes of incubation”. Besides, in data set [3], the “factor VIIIa inactivation assay (FXa formation, S-2222) with human protein S and factor V” value is reported as “the activity of factor VIIIa was inactivated by all APC's from section (2)(i) above but high concentrations were needed”; the “factor VIIIa inactivation assay with bovine protein S and bovine factor V” value is “able to inhibit factor VIIIa activity in the presence of bovine protein S and bovine factor V”.

The record behind these values is patent publication US20050176083.
